{"source": "patent US20190135918A1", "about": "(ICHNOS SCIENCES, published 2019)", "binders": {"B1": {"name": "BEAT CD38-OKT10Mouse/CD3 (bispecific antibody, human IgG1, kappa, L234A L235A)", "heavy": "QVELVESGGSLKLSCAASGFDFSRSWMNWVRQAPGKGLEWIGEINPDSSTINYTTSLKDKFIISRDNAKNTLYLQMTKVRSEDTALYYCARYGNWFPYWGQGTLVTVSSASTKGPSVFPLAPSSKSTSGGTAALGCLVKDYFPEPVTVSWNSGALTSGVHTFPAVLQSSGLYSLSSVVTVPSSSLGTQTYICNVNHKPSNTKVDKKVEPKSCDKTHTCPPCPAPEAAGGPSVFLFPPKPKDTLMISRTPEVTCVVVDVSHEDPEVKFNWYVDGVEVHNAKTKPREEQYNSTYRVVSVLTVLHQDWLNGKEYKCKVSNKALPAPIEKTISKAKGQPREPAVYTLPPSRDELTKNQVKLVCLVTGFYPSDIAVEWESNGQPENNYYTTPPVLDSDGSFSLVSWLNVDKSRWQQGNVFSCSVMHEALHNHYTQKSLSLSPGK", "light": "DILMTQSQKIMPTSVGDRVSVTCKASQNVDTNVAWYQQKPGQSPKALIYSASYRYSGVPDRFTGSGSGTDFTLTITNVQSEDLAEYFCQQYDSYPLTFGAGTKLDLKRTVAAPSVFIFPPSDEQLKSGTASVVCLLNNFYPREAKVQWKVDNALQSGNSQESVTEQDSKDSTYSLSSTLTLSKADYEKHKVYACEVTHQGLSSPVTKSFNRGE", "chain": "EVQLVESGGGLVQPGGSLRLSCAASGYTFTRYTMHWVRQAPGKGLEWIGYINPSRGYTYYADSVKGRFTLSTDKSKNTAYLQMSSLRAEDTAVYYCARYYDDHYCLDYWGQGTLVTVSSGGGGSGGGGSGGGGSDIQLTQSPSSLSASVGDRVTITCRASSSVSYVAWYQQKPGKAPKRWIYDTSKLYSGVPSRFSGSGSGTDYTLTISSLQPEDFATYYCQQWSSNPPTFGQGTKVEIKGGGGTDKTHTCPPCPAPEAAGGPSVFLFPPKPKDTLMISRTPEVTCVVVDVSHEDPEVQFKWYVDGVEVHNAKTKPREEQYNSTFRVVSVLTVLHQDWLNGKEYKCKVSNKALPAPIEKTISKTKGQPREPEVATFPPSREEMTKNQVTLVCLVTGFYPSDIAVEWESSGQPENNYNTDPPLLESDGSFALSSRLRVDKSRWQQGNIFSCSVMHEALHNRFTQKSLSLSPGK"}, "B2": {"name": "VH8-VL4 (scFv)", "scFv-Fc chain": "EVQLVESGGGLVQPGGSLRLSCAASGYTFTRYTMHWVRQAPGKGLEWIGYINPSRGYTYYADSVKGRFTLSTDKSKNTAYLQMNSLRAEDTAVYYCARYYDDHYCLDYWGQGTLVTVSSGGGGSGGGGSGGGGSGGGASDIQLTQSPSSLSASVGDRVTITCRASSSVSYVAWYQQKPGKAPKRWIYDTSKLYSGVPSRFSGSRSGTDYTLTISSLQPEDFATYYCQQWSSNPPTFGQGTKVEIK", "notes": "also called humanized OKT3 VH8-VL4 scFv-Fc fusion; hOKT3 VH8-VL4 scFv Fc"}, "B3": {"name": "VH8-VL8 (scFv)", "scFv-Fc chain": "B2 scFv-Fc chain with R204G", "notes": "also called humanized OKT3 VH8-VL8 scFv-Fc fusion; hOKT3 VH8-VL8 scFv Fc"}, "B4": {"name": "chimeric 9G7 antibody (antibody, human IgG1, kappa, V domains shown)", "VH": "QVTLKESGPGILQPSQTLSLTCSFSGLSLSTSGKGVGWIRQPSGKGLEWLAHIWWDDDKRYNPALKSRLTISKDTSSNQVFLKIASVDTADTATYYCARIELGRSYVMDYWGQGTTVTVSS", "VL": "DIVMTQSHKFMSTSVGDRVSISCKASQDVITSVAWFQQKPGQSPKLLIYSASYRYTGVPDRFTGSGSGTDFTFTISSVQAEDLAVYYCQQHYTIPLTFGAGTKLELKR"}, "B5": {"name": "BTB homodimer construct lacking the VH3 based scFv (other)", "chain": "DKTHTCPPCPAPEAAGGPSVFLFPPKPKDTLMISRTPEVTCVVVDVSHEDPEVKFNWYVDGVEVHNAKTKPREEQYNSTYRVVSVLTVLHQDWLNGKEYKCKVSNKALPAPIEKTISKAKGQPREPEVATFPPSRDELTKNQVTLVCLVTGFYPSDIAVEWESNGQPENNYKTDPPLLESQGSFALSSRLRVDKSRWQQGNVFSCSVMHEALHNHYTQKSLSLSPGK", "notes": "Human IgG1 Fc region with the BTB CH3 domain carrying D401Q"}}, "key": {"human CD38 on cells": {"target": "human CD38 on cells (human, UniProt P28907 1-300)", "assay": "cell-based or functional assay"}, "[1]": {"target": "T1, human CD3 epsilon on cells (human, UniProt P07766 23-207)", "T1 construct": "whole, on cells; On cells it stands in the CD3/TCR complex; also called HPB-ALL cells (human CD3 epsilon positive T cell tumour line); CD3 on human T cells", "assay": "FACS staining of HPB-ALL cells, scFv-Fc format, graded relative to chimeric OKT3", "description": "HPB-ALL cells (DSMZ, Braunschweig, Germany, Cat. No: ACC483) were used as CD3 positive cell line for FACS staining. […] After washing, cells were incubated with a 1/200 dilution of anti-Human Fc-PE (EBioscience, Vienna, Austria) for 45 min on ice. Cells were then washed again and resuspended in 200 ul FACS buffer."}, "[2]": {"target": "T2, soluble extracellular region of cynomolgus monkey CD38 antigen fused to a 6-His-tag (cynomolgus monkey, UniProt Q5VAN0 45-301)", "T2 construct": "also called cynomolgus CD38", "assay": "SPR (summary table, row 'KD cynomolgus monkey CD38 (nM)')"}, "Protein A": {"target": "T3, Protein A (Staphylococcus aureus, UniProt P38507 37-327)", "T3 construct": "Resin ligands (MabSelect, MabSelect SuRe) are recombinant or engineered forms; also called protein A chromatography", "assay": "protein A affinity chromatography, eluate (A) and flow-through (A ft) on non-reducing SDS-PAGE"}, "Protein G": {"target": "T4, Protein G (UniProt P06654 228-352)", "T4 construct": "also called protein G chromatography", "T4 sequence (P06654 228-352)": "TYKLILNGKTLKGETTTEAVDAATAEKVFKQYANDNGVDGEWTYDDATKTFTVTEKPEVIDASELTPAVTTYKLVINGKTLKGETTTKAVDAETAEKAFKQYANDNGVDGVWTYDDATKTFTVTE", "assay": "protein G affinity chromatography, eluate (G) and flow-through (G ft) on non-reducing SDS-PAGE"}}, "note": "Changes are numbered by the printed parent chain. Names may count otherwise."}
{"binder": "B1", "values": [{"measurement": "killing assay against Daudi cells, flow cytometry readout, EC50 (pM)", "setting": "human CD38 on cells", "result": 126, "unit": "pM"}]}
{"binder": "B2", "values": [{"measurement": "binding result", "setting": "[1]", "result": "binds"}]}
{"binder": "B3", "values": [{"measurement": "binding result", "setting": "[1]", "result": "binds"}]}
{"binder": "B4", "values": [{"measurement": "Kd", "setting": "[2]", "result": 1, "unit": "nM"}]}
{"binder": "B5", "values": [{"measurement": "binding result", "setting": "Protein A", "result": "no binding"}, {"measurement": "binding result", "setting": "Protein G", "result": "no binding"}]}
